Data as given in the nanobody polyreactivity screen of Harvey et al. (2022).

Assay: yeast display, Sf9 membrane polyspecificity reagent, FACS + sequencing; frameworks hold sequencing errors
Summary of the method: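 Synthetic nanobody libraries on Saccharomyces cerevisiae BJ5465 were galactose-induced for 36–48 hours, stained 1 hour at 4 °C with 10% biotinylated, detergent-solubilized Sf9 membrane reagent and enriched on streptavidin microbeads. FACS then separated cells into low and high (top ~1%) gates by anti-HA (expression) and streptavidin (reagent binding) fluorescence. Genes were colony-PCR amplified, MiSeq 2 × 250 sequenced and CDR-length filtered. A clone's polyreactivity label is that of its gate of origin.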

Row | Sequence | polyreactivity (PSR sort gate)
1 | QVQLVESGGGLVQAGGSLRLSCAASGRNFKNYDMVWYRQAPGKERELVADISWRSGSTNYSDSVKGRFTISRDNAKNNVYLQMNSLKPEDTAVYYCASKRRISGWSQFTSYADFDYWGQGTQVTVSS | low polyreactivity
2 | QVQLVESGGGLVQAGGSLRLSCAASGRNFNYNAMGWYRQAPGKERELVAVISWSGRTYYADSVKGRFTISRDNAKNTVYLLMNSLKPEDTAVYYCNKRSYRVLYGYWGQGTQVTVSS | high polyreactivity
3 | QVQLVESGGGLVQAGGSLRLSCAASGRNFPYYAMGWYRQAPGKERELVAAISSSGGGTYYADSVKGRFTISRDNEKNTVYLQMNSLKPEDTAVYYCAAVYKVHSGLYDYWGQGTQVTLSS | high polyreactivity
4 | QVQLVESGGGLVQAGGSLRLSCAASGRNFSFNTMVWYIQAPRKERELVAAITSSSARTYYADSVKGRFTISRDNAKNTVYLQMNSLKPEDTAVDYCDTRDWVGSVRMGYWGQGTQVTVSS | high polyreactivity
5 | QVQLVESGGGLVQAGGSLRLSCAASGRNFSLYAMGWYRQAPGKERELVAAISRGGSTYYADSVKGRFTISRDNAKNTVYLQMNSLKPEDTAVYYCAAAPDYRAEYDYWGQGTQVTVSS | low polyreactivity
6 | QVQLVESGGGLVQAGGSLRLSCAASGRNFTRNAMGWYRQAPGKEREFVAAISYRGGSTYYADSVKGRFTISRDNAKNTVYLQMNSLKPEDSAVYYCAKRIYPYYGELYWGQGTQVTVSS | high polyreactivity
7 | QVQLVESGGGLVQAGGSLRLSCAASGRNFWVYAMGWYRQAPGKERELVAAISLSGGRTYYADSVKGRFTITRDKAKNNVNLQMNSLKPEDTAVYYCYAVYPKRGGGRIVDYWGQGTQVTVSS | high polyreactivity
8 | QVQLVESGGGLVQAGGSLRLSCAASGRNFYVYAMGWYRQAPGKERELVATISRGGSTTYADSVKGRFTISRDNAKNTVYLQMNSLKPEDTAVYYCATELLGGRRTVAYYWGQGTQVTVSS | low polyreactivity
9 | QVQLVESGGGLVQAGGSLRLSCAASGRNFYVYGLGWYRQAPGKERELVASITYRGGSTSYADSVKGRFTISRDNAKNTVYLQMNSLKPEDTAVYYCNADTYYRYDYWGQGTQVTVSS | high polyreactivity
10 | QVQLVESGGGLVQAGGSLRLSCAASGRNFYYNAMGWYRQAPGKERELVAVISGRGGSTYYADSVKGRFTISRDNAKNTVYLQMNSLKPEDTAVYYCAAGYTRPWRFTYYYWGQGTQVTVSS | high polyreactivity
11 | QVQLVESGGGLVQAGGSLRLSCAASGRNITANAMGWYRQAPGKEREFVAAINVSGGSTYYADSVKGRFTISRDNAKNTVYFQMNSLKPEDTAVYYCNADYYYYDIYWWQMDYWGLGTQVTVSS | low polyreactivity
12 | QVQLVESGGGLVQAGGSLRLSCAASGRPFRGYAMGWYRQAPGKDRELVAAITRSGGSTYYADSVKGRFTISRDNAKNTVYVQMTSLKPEDTAVSYCNAVRHAQSRWPYGYWGQGTQVTVSS | high polyreactivity
13 | QVQLVESGGGLVQAGGSLRLSCAASGRPFVGNVMGWYRQAPGKERELVDAITRTAGSTYYADSVKGRFTISRDNAKNTVYLEMNSLKPEDTAVDYCAVEGIYRWYDYSWYYTSTYDYWGQGTQVTVSS | low polyreactivity
14 | QVQLVESGGGLVQAGGSLRLSCAASGRSFSGYAMGWYRQAPGKERDLVAAITSSGGRTYYADSVKGRFTISRDNAKNTVYVQMNSLKPEETAVYYSAAMRPGYRPQGLDYWGQGTQVTVSS | low polyreactivity
15 | QVQLVESGGGLVQAGGSLRLSCAASGRSFYFNAMGWYRQAPGKERELVATISSSSTTYADSVKRRFTISRDNAKNTVYLQMTSLKPEDTAVYYCAARLGTYGEWGRTSYLRWYDYWGQGTQVTVSS | low polyreactivity
16 | QVQLVESGGGLVQAGGSLRLSCAASGRSIAYYAMGWYRQAPGKERELVAAINWSGGRTYYADSVKGRFTLSRDNAKNTVYLQMNSLKPEETAVYYCNAVYNESRGSYQDDYWGQGTQVTVSS | high polyreactivity
17 | QVQLVESGGGLVQAGGSLRLSCAASGRSLGWYAMGWYRKAPGKERELVAAISSGVRTNYADSVKGRFTISRDNAKNTVYLQMNSLKPEDTAVYYCAAATYNQDYSYDYWGQGTQVTVSS | low polyreactivity
18 | QVQLVESGGGLVQAGGSLRLSCAASGRTCGRYAMVLYRQAPGKERELVAAISYSGGSTYYADSVKGRFTISRDNAKNTVYLQMNSLKPEDTAVYYCARYSIFRWTRDEYWGQGTQVTVSS | high polyreactivity
19 | QVQLVESGGGLVQAGGSLRLSCAASGRTCWYKAMGWYRQAPGKERELVAPITSGGRTKYADSVKGRFTISRDNAKNTVYLQMNSLKPEDTAVYYCNTYNRRSGTLPKPYDYWGQGTQVTVSS | high polyreactivity
20 | QVQLVESGGGLVQAGGSLRLSCAASGRTCYNTMGWYRQAPGKERELVAAISRGGITNYADSVKGRFTISRDSAKKTGYLQMNRLKPEDTAVYYCNAEPKRYYYYYKFDYWGQGTQVTVSS | high polyreactivity
21 | QVQLVESGGGLVQAGGSLRLSCAASGRTDAYYAMGWYRQAPGKERELVAAITRGGSTYYADSVKGRFTISRDNAKNTVYLQMNSLKPEDTAVYYCAAATSPYQDDYWGQGTQVTVSS | low polyreactivity
22 | QVQLVESGGGLVQAGGSLRLSCAASGRTFAAYTMGWYSQAPGKERELVAAIRRSGSSTYYADSVKGRFTISRDNAKNTVYLQMNSLKPEDTAVYYCARVGRFTGGGYWGQGTQVTVSS | high polyreactivity

Row | Sequence | polyreactivity (PSR sort gate)
23 | QVQLVESGGGLVQAGGSLRLSCAASGRTFAGNAMGWYRQAPGKERELVAAIRRTGGRTYYADSVKGRFTISRDNAKNTVYLQMNSLKPEETAVYYCNAVNKPYTREYGYDYWGQGTQVTGSS | high polyreactivity
24 | QVQLVESGGGLVQAGGSLRLSCAASGRTFAGNAMGWYRQAPGKERELVAGISSGGSTNNADSVKGRFTSTRDNAKNTVYLQMNSLNPEDTAVYYCAKRYFRKGYPLFQYAYGYWGQGTQVTLSS | high polyreactivity
25 | QVQLVESGGGLVQAGGSLRLSCAASGRTFAGYAMGWYRQAPGKERELVAAISTRGGSTYYADSVKGRFTISRDNAKNTVYLQMNSLKPEDTAVYYCAATKPKFYQFDYWGQGTQVTVSS | high polyreactivity
26 | QVQLVESGGGLVQAGGSLRLSCAASGRTFAGYVMGWYRQAPGKERELVAAISTSGGSTRYADSVKGRFTISRDNAKNTVYLQMNSLKPEDTAVYYCAKLLYLGRWRFPAGYNHWGQGTQVTVSS | high polyreactivity
27 | QVQLVESGGGLVQAGGSLRLSCAASGRTFAIDAMGWYRQAPGKEREFVAAISWSGGDTYYADSVKGRFTISRDNAKNTVYFQMNRLKPEDTAVYYSAGRDNDYEGRDLQDELDYWGQGTQVTVSS | low polyreactivity
28 | QVQLVESGGGLVQAGGSLRLSCAASGRTFAINARGWYRQAPGKERELVAAITTSGGGTYYADSVKGRFTISRDNAKNTVYLQMNSLKPEDTAVYYCAAGTSYYTYRFYAWDYDYWGQGTQVTVSS | low polyreactivity
29 | QVQLVESGGGLVQAGGSLRLSCAASGRTFAIYAMGWYRQAPGKERELVAGITIRGGRTYYADSVKGRFTISRYIAKNTVYLQMNSLKPEDTAVYYCNARGWYEYGWGQGTQVTVSS | high polyreactivity
30 | QVQLVESGGGLVQAGGSLRLSCAASGRTFAKYAMGWSRPAPGKERELVAAIRWSGGSTYYADSVKGRFTISRDNAKNTVYLQMTSLKPEDTAVYYCATERFVLGLGYDYWGQGTQVTVSS | high polyreactivity
31 | QVQLVESGGGLVQAGGSLRLSCAASGRTFAKYAMGWYRQAPGKERELVAAIRWSGGSTYYADSVKGRFTISRDNAKNTVYLQMNSLKPEDTAVYYCAARPALWGRYRGYDYWGQGTQVTVSS | high polyreactivity
32 | QVQLVESGGGLVQAGGSLRLSCAASGRTFAKYAMGWYRQAPGKERELVAAISDSGGSTYYADSVKGRFTISRDNAKNTVYLQMNSLKPEDTAVYYCAADGRYTYYWGQGTQVTVSS | high polyreactivity
33 | QVQLVESGGGLVQAGGSLRLSCAASGRTFAKYAMGWYRQAPGKERELVASISGRGTNTYYADSVKGRFTISRDNAKNTVYLQMNSLKPEDTAVYYCAATYVYPYRDSHYYYWGQGTQVTVSS | high polyreactivity
34 | QVQLVESGGGLVQAGGSLRLSCAASGRTFAKYGMGWYIQAPGKERELVAAIDYSGGSTYYADSVKGRFTISRDNAKNTVYLQMNSLKPEDTAVYYCAADYFWLYYSEYGYWGQGTQVTVSS | low polyreactivity
35 | QVQLVESGGGLVQAGGSLRLSCAASGRTFALNAMGWYRQAPGKERELVAAISWSSGRTYYADSVKGRFTISRDNAKNTVYLQMNSLKPEDTAVYYCAALVAHKGDYWGQGTQVTVSS | high polyreactivity
36 | QVQLVESGGGLVQAGGSLRLSCAASGRTFALYAMGWYRHAPGKERELVASISWRGGSTYYADSVKGRFTISRDNAKNTVYLQMNSLKPEDTAVYYCAADTWSYGPLNYRLEYWGQGTQVTVSS | low polyreactivity
37 | QVQLVESGGGLVQAGGSLRLSCAASGRTFALYAMGWYRQAPGKERELVATITFIGDSTYYADSVKGRFTISRDNAKNTVYLQMNCLKPVDTAVYYCNATYGPYYPGIVTYIWFDHWGQGSQVTVSS | low polyreactivity
38 | QVQLVESGGGLVQAGGSLRLSCAASGRTFANNAMGWYRQAPGKERELVARISNSGSTNYADSVKGRFTISRDNAKNTVYLQMNSLKPEDTAVYYCAARIVRLYSRYDYWGQGTQVTVSS | low polyreactivity
39 | QVQLVESGGGLVQAGGSLRLSCAASGRTFANYAMGWYRQAPGKERELVAAITSGGRTYYADSVKGRFTISRDNAKNTVYLQMNSLKPEDTAVYYCAADYTYDYQNDYWGQGTQVTVSS | high polyreactivity
40 | QVQLVESGGGLVQAGGSLRLSCAASGRTFAPNAMRWSRQAPGKERELVARITWSGTDTYYADSVKGRFTISRDNAKNTVYLQMNSLKPEDTAVYYCAADARYSRRYYYWGQGTQVTVSS | low polyreactivity
41 | QVQLVESGGGLVQAGGSLRLSCAASGRTFAPNTMGWYRQAPGKERELVATISSGGSTNYADSVKGRFTISRDNAKNTVYLQMNSLKPEDTAVYYCAARYRIVYRSHWGFTSYDYWGQGTQVTVSS | low polyreactivity
42 | QVQLVESGGGLVQAGGSLRLSCAASGRTFAPYAMGWYRQAPGKERELVAAITSGGSTYYADSVKGRFTISRDNAKNTVYLQMNSLKPEDTAVYYCAAKFVGTTVSEYGYWGQGTEVTVSS | low polyreactivity
43 | QVQLVESGGGLVQAGGSLRLSCAASGRTFAPYAMGWYRQARGQERELVATITRTGRTNYADSVKGRFTISRDNAKNTVYLQMNSLKPEDTAVYYCAAYTYYGFYYWGQGTQVTVSS | high polyreactivity
